± gives the uncertainty stated by the source.
Assay: protein stability index of a GFP-peptide fusion (yeast GPS) (PSI 1-4); higher = more stable; sorted into four equal gates, so the index is relative within each strain
Conditions: doa10∆
In short: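 Plasmids in a pooled yeast library fused tiled 17-residue yeast protein peptides downstream of GFP and also expressed Cherry. Mid-log cultures grown without leucine were sorted into four equal gates by GFP/Cherry fluorescence ratio. Each gate's plasmids were PCR-amplified and Illumina-sequenced, and reads were matched to strains by barcodes. The protein stability index is derived by multiplying each gate's read frequency by its gate number and summing the results.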

Row | Sequence | protein stability index
1 | DLSYIEFLFESLKNDLP [ECM29] | 2.84 ± 0.13

Same assay, conditions: pdr5∆

Row | Sequence | protein stability index
2 | CIIFITFEFINIAFDAH [YML031W/NDC1] | 1.44 ± 0.044
3 | CIPLVGISVPFHSTYLM [FAS1] | 1.3 ± 0.04
4 | CITKQDGFKIYDNEKTA [PUP2] | 3.06 ± 0.063
5 | CKQFPKLSCIQLNCIDT [SRB8] | 1.95 ± 0.039
6 | CLFTKCLEDPEKPFNEN [POP4] | 3.02 ± 0.15
7 | CLNTQRGDSTETSSFGS [RRI1] | 3.25 ± 0.17
8 | CLTGTVAARMFHILLKL [ECM29] | 2.03 ± 0.096
9 | CLTKFQDEEQTEHLTEL [YCG1] | 3 ± 0.15
10 | CNALIHIKFSAGTEANA [SRB4] | 2.31 ± 0.039
11 | CNQMENLLESITKLLEI [YCS4] | 2.8 ± 0.054
12 | CRNILGVTSLIKNLGLP [RPP1] | 1.58 ± 0.051
13 | CRRMILTHVDLIEKFLR [RPB10] | 1.46 ± 0.11
14 | CSIEPIAAKLINSGLYS [YML103C/NUP188] | 1.29 ± 0.065
15 | CTFSMEPYHFISNYNTK [SRB8] | 2.09 ± 0.05
16 | DADKLSFNCENFFQAPQ [YML031W/NDC1] | 2.15 ± 0.058
17 | DAFVATAFATEFFVQVL [DLS1] | 3.03 ± 0.089
18 | DAMVTRTPVIISLRNNH [SMD2] | 1.85 ± 0.056
19 | DANLLGAEVLIKGSKLS [COR1] | 2.85 ± 0.079
20 | DATNTSYKMIQLDAYGE [SWP82] | 3.39 ± 0.077
21 | DAWVSAAHYNRERIKRG [PRP8] | 1.81 ± 0.099
22 | DCLSFAPTLSQTYINQE [SSN2] | 2.76 ± 0.081
23 | DCMIAHGAASFLKERLM [RPB2] | 2.54 ± 0.068
24 | DCNSALDQLLVLEKKTR [RPN5] | 2.31 ± 0.1
25 | DDDDDDDDEVDYSEIQR [DSN1] | 3.49 ± 0.087
26 | DDDINWQELARSTDEFN [RPT5] | 3.21 ± 0.065
27 | DDDISDDEEDEIEENCL [RPN4] | 3.27 ± 0.089

Row | Sequence | protein stability index
28 | DDDTFSDREMAALIASK [RPN2] | 1.55 ± 0.056
29 | DDETPSCEVEEIGLLGG [SNU114] | 3.35 ± 0.084
30 | DDHSQVINPQQLLKGLS [DSN1] | 2.98 ± 0.084
31 | DDKVSVVEKEKIESLAG [UBP6] | 2.84 ± 0.24
32 | DDKYGRKFALEKLYIFY [SRP72] | 2.82 ± 0.081
33 | DDLKQKKEELVEIAYHK [RPO31] | 3.13 ± 0.072
34 | DDNDVPGPLPDTDSKPS [YLR018C/POM34] | 2.98 ± 0.084
35 | DDQCMLITTYSKLSKNI [SIN4] | 2.42 ± 0.076
36 | DDSANIVNVNFMKSVIR [DIS3] | 3.1 ± 0.06
37 | DDSTKFQLVNDVMDELI [SIR3] | 3.37 ± 0.15
38 | DDTWYNLTEFVQMDKIR [AAR2] | 2.88 ± 0.081
39 | DEANIEIDPLTGMPISN [BRN1] | 2.65 ± 0.25
40 | DEATVPNTRDAESEAIT [SWI3] | 3.15 ± 0.06
41 | DEDDDLDEDDVNADDDD [RPB4] | 3.13 ± 0.086
42 | DEDESQNIAQSSNQSAP [HRT1] | 3.15 ± 0.074
43 | DEEGIFSRFVDQFIRHV [YCG1] | 2.79 ± 0.13
44 | DEGLLNMVSLRGRNDTL [GRR1] | 2.49 ± 0.14
45 | DEIYIPINGNEAESQWY [CSI1] | 3.13 ± 0.06
46 | DEKNKNNNEDNENNNNS [MED2] | 3.39 ± 0.069
47 | DELILPLPSHALTVQEV [YDL116W/NUP84] | 2.56 ± 0.036
48 | DELMVIYISNLVRSIIA [RPN8] | 3.22 ± 0.17
49 | DESYARAYRIIRAHQTE [QCR7] | 3.43 ± 0.17
50 | DETKGFDDNDSGNNYND [MED2] | 3.07 ± 0.058
51 | DEYQAAVEQRKKEKLDS [DPB4] | 3.34 ± 0.14
52 | DFDGDEMNLHVPQSEET [RPO21] | 3.12 ± 0.063
53 | DFISPELIIDKVTCSSN [MED1] | 1.75 ± 0.099

Row | Sequence | protein stability index
54 | DFLRYINIKYLRLDGHT [SNF2] | 1.32 ± 0.062
55 | DFVRNELNDIDTKIDQV [SMC3] | 3.31 ± 0.11
56 | DGFKIYDNEKTAELIKE [PUP2] | 3.32 ± 0.15
57 | DGGLEEETDEVSSESSD [SIR3] | 3.3 ± 0.11
58 | DGIVVKNAVVRSKFGGD [ARP7] | 1.92 ± 0.2
59 | DGKEDVEKGTPLGKILL [SME1] | 3.44 ± 0.09
60 | DGLEKAAFNGVTFKDKY [FAS2] | 1.57 ± 0.096
61 | DGMDAAHIEKQSLDTIG [RPO21] | 3.29 ± 0.095
62 | DGNNEIFTCQIMNLITN [RPN4] | 2.62 ± 0.18
63 | DGTAKEVGDEADNTKDK [MED4] | 3.18 ± 0.12
64 | DHDDSTDDADDHINWEH [NSL1] | 3.31 ± 0.094
65 | DHHPEGLSAREAVKQAA [PRE10] | 2.53 ± 0.066
66 | DHILFTKTFIFIYKKVL [SRB8] | 1.14 ± 0.14
67 | DHKFPIRENKVTYSRVS [BRN1] | 2.9 ± 0.11
68 | DIEFINSLLTIVWRFIS [RPC34] | 2.91 ± 0.23
69 | DIEIVRVNKNAPAVELH [FAS2] | 3.08 ± 0.064
70 | DIENKEEEYDETHETNI [YAR002W/NUP60] | 3.21 ± 0.087
71 | DIFGDSELFDEWFEQNN [ISW2] | 2.49 ± 0.072
72 | DIGKGAETTFLQDVIAL [RPC53] | 2.31 ± 0.1
73 | DIIMNPHGFPSRMTVGK [RET1] | 2.83 ± 0.076
74 | DIINAVNEIMYKCTAAM [MTW1] | 2.77 ± 0.1
75 | DIKAAVDDSMELCGQIR [ITC1] | 2.82 ± 0.12
76 | DILLRLCVLWDDLQSSV [YCG1] | 1.4 ± 0.051
77 | DINTVNTNLMNGVNVQI [GRR1] | 3 ± 0.087
78 | DIPPPAIMKPYYLWTGK [RPO31] | 2.77 ± 0.075
79 | DIQAMCTEAGLLALRER [RPT2] | 3.33 ± 0.12

Row | Sequence | protein stability index
80 | DIQLKNLFPLKPKMLPI [SRP68] | 2.66 ± 0.057
81 | DITTSIMDNFLERTAIE [RPN1] | 3.35 ± 0.17
82 | DIVQYHLELYTSQYGTP [PRE3] | 1.74 ± 0.058
83 | DKEKEENNDDALDLDLD [MED4] | 3.12 ± 0.095
84 | DKFSPEDGLGPLMAKSV [ARP7] | 3.06 ± 0.11
85 | DKITLHDEKTLAPSKHQ [SIR4] | 2.68 ± 0.16
86 | DKKNKRLKFGHRLIATH [SNF2] | 1.8 ± 0.057
87 | DKLICSIDPPGCVDIDD [DIS3] | 3.11 ± 0.062
88 | DKNKLLLLAAQIVSYCS [SSN2] | 1.66 ± 0.038
89 | DKSTTQLRKEIQLLDEN [MED11] | 1.54 ± 0.086
90 | DKTLRLWDVATGETYQR [ASC1] | 3.36 ± 0.16
91 | DKVDDYTPEEVDKIERE [SMC4] | 1.45 ± 0.12
92 | DKVSSCFPQYVNSKQGA [NNF1] | 2.23 ± 0.091
93 | DLCDVVESKFTEKIKSM [RPC19] | 2.9 ± 0.11
94 | DLENSPLKTELEANGRS [SSN2] | 3.59 ± 0.093
95 | DLESSSPELKADLRPLQ [RPS7B] | 2.97 ± 0.21
96 | DLEWQELTSFSSQPLEP [DSN1] | 3.05 ± 0.053
97 | DLKFKRHKNKHIQGFPT [DSN1] | 3.38 ± 0.28
98 | DLKIEKLVLNISVGESG [RPL11A] | 2.66 ± 0.095
99 | DLKNTRMKSITSTSQKI [SNF5] | 3.14 ± 0.074
100 | DLLKLVHLSNGYKMIPG [FAS1] | 2.46 ± 0.055
101 | DLNKENKLLRRKLMEME [YIL149C/MLP2] | 2.95 ± 0.21
102 | DLSANQRETMKERKLRE [SMC1] | 3.06 ± 0.096
103 | DLSRIMDWLDNWGRKEH [ITC1] | 3.33 ± 0.26

Reference: the supplement of paper PMC9732359
